This is an account of results in article PMC2924460 (Arteriosclerosis, thrombosis, and vascular biology, 2010).

This series deals with the molecule itself. Briefly: FRET or BRET. A general note: BRET reads energy transfer from a luciferase to a nearby fluorophore.

B1: thromboxane A2 receptor alpha (TPα), fused to renilla luciferase (TPαrLUC) or to yellow fluorescent protein (TPαYFP) (receptor, UniProt P21731 1-343, looked up)
chain: MWPNGSSLGPCFRPTNITLEERRLIASPWFAASFCVVGLASNLLALSVLAGARQGGSHTRSSFLTFLCGLVLTDFLGLLVTGTIVVSQHAALFEWHAVDPGCRLCRFMGVVMIFFGLSPLLLGAAMASERYLGITRPFSRPAVASQRRAWATVGLVWAAALALGLLPLLGVGRYTVQYPGSWCFLTLGAESGDVAFGLLFSMLGGLSVGLSFLLNTVSVATLCHVYHGQEAAQQRPRDSEVEMMAQLLGIMVVASVCWLPLLVFIAQTVLRNPPAMSPAGQLSRTTEKELLIYLRVATWNQILDPWVYILFRRAVLRRLQPRLSTRPRSLSLQPQLTQRSGLQ
Regarding B1, the BRET50 turned out to be 1.24 YFP fold over basal.
